Paper PMC5973687 (mAbs, 2018)

B1: human TL1A (extracellular domain, recombinant) (ligand, UniProt O95150 57-251, looked up)
chain: SQLRAQGEACVQFQALKGQEFAPSHQQVYAPLRADGDKPRAHLTVVRQTPTQHFKNQFPALHWEHELGLAFTKNRMNYTNKFLLIPESGDYFIYSQVTFRGMTSECSEIRQAGRPNKPDSITVVITKVTDSYPEPTQLLMGTKSVCEVGSNWFQPIYLGAMFSLQEGDKLMVNVSDISLVDYTKEDKTFFGAFLL
modifications: biotin (single-site biotinylated, site not stated) in the competition ELISA

Columns and labels:
DR3-Fc = DR3-Fc (UniProt Q93038); assay: ELISA
DcR3-Fc = target: T1, DcR3-Fc (UniProt O95407 30-300); assay: ELISA
T1 sequence (looked up): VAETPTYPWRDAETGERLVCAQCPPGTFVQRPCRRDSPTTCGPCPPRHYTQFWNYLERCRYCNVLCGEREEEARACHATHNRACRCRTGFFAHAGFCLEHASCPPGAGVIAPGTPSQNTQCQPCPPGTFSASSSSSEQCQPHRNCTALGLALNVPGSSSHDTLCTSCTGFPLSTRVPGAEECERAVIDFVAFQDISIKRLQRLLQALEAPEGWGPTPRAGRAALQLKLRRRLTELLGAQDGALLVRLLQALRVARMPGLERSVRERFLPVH

DR3-Fc, sequence (Q93038 25-199): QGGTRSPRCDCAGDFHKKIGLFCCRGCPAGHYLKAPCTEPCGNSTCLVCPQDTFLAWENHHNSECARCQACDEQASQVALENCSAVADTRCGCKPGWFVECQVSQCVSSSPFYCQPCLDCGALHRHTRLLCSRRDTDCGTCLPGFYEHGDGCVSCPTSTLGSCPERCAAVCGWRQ

Molecule | decrease in binding against wild-type TL1A (DR3-Fc) [%] | binding result (DcR3-Fc)
TL1A-R32A (ligand) | 50 | 
B1 |  | binds
